# T1: APC5531-AA
# T1 chain: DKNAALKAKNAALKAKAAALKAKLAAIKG
# T2: APC8516-AA
# T2 chain: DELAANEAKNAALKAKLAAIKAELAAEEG
# T3: APC4336-AA
# T3 chain: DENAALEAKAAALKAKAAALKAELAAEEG
# T4: APC3323-AA
# T4 chain: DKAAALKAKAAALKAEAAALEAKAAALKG
# T5: APC4100-AA
# T5 chain: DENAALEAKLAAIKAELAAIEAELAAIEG
# T6: APC2981-AA
# T6 chain: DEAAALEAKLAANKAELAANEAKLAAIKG
# T7: APC9291-AA
# T7 chain: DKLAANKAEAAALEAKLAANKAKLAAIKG
# T8: APC7524-AA
# T8 chain: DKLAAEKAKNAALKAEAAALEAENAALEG
# T9: APC3354-AA
# T9 chain: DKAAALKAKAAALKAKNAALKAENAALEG
# T10: APC9182-AA
# T10 chain: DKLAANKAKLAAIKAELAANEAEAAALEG
# T11: APC9806-AA
# T11 chain: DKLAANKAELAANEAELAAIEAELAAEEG
# T12: APC6088-AA
# T12 chain: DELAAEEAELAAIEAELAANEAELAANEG
# T13: APC2724-AA
# T13 chain: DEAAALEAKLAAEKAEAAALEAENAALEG
# T14: APC542-AA
# T14 chain: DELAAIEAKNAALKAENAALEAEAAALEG
# T15: APC3265-AA
# T15 chain: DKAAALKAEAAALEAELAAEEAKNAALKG
# T16: APC2556-AA
# T16 chain: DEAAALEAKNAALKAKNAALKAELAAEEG
# T17: APC2811-AA
# T17 chain: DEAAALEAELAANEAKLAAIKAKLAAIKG
# T18: APC3881-AA
# T18 chain: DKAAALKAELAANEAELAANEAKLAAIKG
# T19: APC9141-AA
# T19 chain: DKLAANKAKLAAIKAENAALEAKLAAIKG
# T20: APC8401-AA
# T20 chain: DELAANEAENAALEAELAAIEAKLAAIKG
# T21: APC2543-AA
# T21 chain: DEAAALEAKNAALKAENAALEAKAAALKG
# T22: APC5009-AA
# T22 chain: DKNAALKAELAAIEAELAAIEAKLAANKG
# T23: O5-bP
# T23 chain: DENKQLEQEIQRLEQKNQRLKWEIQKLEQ
# T24: O4-bP
# T24 chain: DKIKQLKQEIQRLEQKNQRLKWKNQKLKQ
# T25: O9-bP
# T25 chain: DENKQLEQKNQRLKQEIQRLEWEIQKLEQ
# T26: O6-bP
# T26 chain: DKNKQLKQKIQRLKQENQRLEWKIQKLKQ
# T27: O3-bP
# T27 chain: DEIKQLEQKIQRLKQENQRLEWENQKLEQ
# T28: O8-bP
# T28 chain: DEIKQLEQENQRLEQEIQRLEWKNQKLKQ
# T29: O2-bP
# T29 chain: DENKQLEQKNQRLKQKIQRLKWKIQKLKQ
# T30: O7-bP
# T30 chain: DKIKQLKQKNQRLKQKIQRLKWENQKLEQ
# B1: APC2543-AA (peptide)
# chain: DEAAALEAKNAALKAENAALEAKAAALKG
# B2: O2-bP (peptide)
# chain: DENKQLEQKNQRLKQKIQRLKWKIQKLKQ
# Columns and labels:
# APC5531-AA = target: T1, APC5531-AA; experiment: two-hybrid library CCmax; settings: mean of both orientations;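 further: natural log of median RNA to DNA barcode read ratio; higher means stronger binding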
# APC8516-AA = target: T2, APC8516-AA; experiment: two-hybrid library CCmax; settings: mean of both orientations;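 further: natural log of median RNA to DNA barcode read ratio; higher means stronger binding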
# APC4336-AA = target: T3, APC4336-AA; experiment: two-hybrid library CCmax; settings: mean of both orientations;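 further: natural log of median RNA to DNA barcode read ratio; higher means stronger binding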
# APC3323-AA = target: T4, APC3323-AA; experiment: two-hybrid library CCmax; settings: mean of both orientations;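 further: natural log of median RNA to DNA barcode read ratio; higher means stronger binding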
# APC4100-AA = target: T5, APC4100-AA; experiment: two-hybrid library CCmax; settings: mean of both orientations
# APC2981-AA = target: T6, APC2981-AA; experiment: two-hybrid library CCmax; settings: mean of both orientations
# APC9291-AA = target: T7, APC9291-AA; experiment: two-hybrid library CCmax; settings: mean of both orientations
# APC7524-AA = target: T8, APC7524-AA; experiment: two-hybrid library CCmax; settings: mean of both orientations
# APC3354-AA = target: T9, APC3354-AA; experiment: two-hybrid library CCmax; settings: mean of both orientations
# APC9182-AA = target: T10, APC9182-AA; experiment: two-hybrid library CCmax; settings: mean of both orientations
# APC9806-AA = target: T11, APC9806-AA; experiment: two-hybrid library CCmax; settings: mean of both orientations
# APC6088-AA = target: T12, APC6088-AA; experiment: two-hybrid library CCmax; settings: mean of both orientations
# APC2724-AA = target: T13, APC2724-AA; experiment: two-hybrid library CCmax
# APC542-AA = target: T14, APC542-AA; experiment: two-hybrid library CCmax; settings: mean of both orientations
# APC3265-AA = target: T15, APC3265-AA; experiment: two-hybrid library CCmax; settings: mean of both orientations
# APC2556-AA = target: T16, APC2556-AA; experiment: two-hybrid library CCmax; settings: mean of both orientations
# APC2811-AA = target: T17, APC2811-AA; experiment: two-hybrid library CCmax; settings: mean of both orientations
# APC3881-AA = target: T18, APC3881-AA; experiment: two-hybrid library CCmax; settings: mean of both orientations
# APC9141-AA = target: T19, APC9141-AA; experiment: two-hybrid library CCmax; settings: mean of both orientations
# APC8401-AA = target: T20, APC8401-AA; experiment: two-hybrid library CCmax; settings: mean of both orientations
# APC2543-AA = target: T21, APC2543-AA; experiment: two-hybrid library CCmax
# APC5009-AA = target: T22, APC5009-AA; experiment: two-hybrid library CCmax; settings: mean of both orientations
# O5-bP = target: T23, O5-bP; experiment: two-hybrid library CCNG1
# O4-bP = target: T24, O4-bP; experiment: two-hybrid library CCNG1
# O9-bP = target: T25, O9-bP; experiment: two-hybrid library CCNG1
# O6-bP = target: T26, O6-bP; experiment: two-hybrid library CCNG1
# O3-bP = target: T27, O3-bP; experiment: two-hybrid library CCNG1
# O8-bP = target: T28, O8-bP; experiment: two-hybrid library CCNG1
# O2-bP = target: T29, O2-bP; experiment: two-hybrid library CCNG1
# O7-bP = target: T30, O7-bP; experiment: two-hybrid library CCNG1
binder,measurement,setting,value
B1,interaction score,APC5531-AA,-1.8
same,interaction score,APC8516-AA,-1.7
same,interaction score,APC4336-AA,-1.73
same,interaction score,APC3323-AA,-1.36
same,interaction score,APC4100-AA,-1.65
same,interaction score,APC2981-AA,-1.4
same,interaction score,APC9291-AA,-1.67
same,interaction score,APC7524-AA,-1.63
same,interaction score,APC3354-AA,-1.72
same,interaction score,APC9182-AA,-1.84
same,interaction score,APC9806-AA,-1.56
same,interaction score,APC6088-AA,-1.87
same,interaction score,APC2724-AA,-1.16
same,interaction score,APC542-AA,-1.65
same,interaction score,APC3265-AA,-1.58
same,interaction score,APC2556-AA,-1.67
same,interaction score,APC2811-AA,-1.54
same,interaction score,APC3881-AA,-1.22
same,interaction score,APC9141-AA,-1.6
same,interaction score,APC8401-AA,-1.23
same,interaction score,APC2543-AA,-1.71
same,interaction score,APC5009-AA,-1.04
B2,interaction score,O5-bP,-0.804
same,interaction score,O4-bP,-0.811
same,interaction score,O9-bP,-1.4
same,interaction score,O6-bP,-0.766
same,interaction score,O3-bP,-0.635
same,interaction score,O8-bP,-1.21
same,interaction score,O2-bP,-1.2
same,interaction score,O7-bP,-0.723

# Source: paper PMC10397247
